In patent publication US20230183314A1 (ARO BIOTHERAPEUTICS, published 2023):
Substitutions are numbered along the chain they refer to. Like-named read-outs stand apart in the source and are kept apart here. One block for each binder: values may come before it.

Key:
[1] = biological target: T1, cynomolgus monkey PSMA-Fc fusion (human; cynomolgus monkey, PSMA is a glycosylated homodimer. Only one subunit is given.); assay: binding to cynoPSMA-Fc; method not described
T1 construct: also called cyno PSMA Fc; cynoPSMA-Fc; not shown: Human IgG1 Fc domain, which sits N-terminal of the PSMA ECD, and the junction with the Prescission protease site
T1 chain: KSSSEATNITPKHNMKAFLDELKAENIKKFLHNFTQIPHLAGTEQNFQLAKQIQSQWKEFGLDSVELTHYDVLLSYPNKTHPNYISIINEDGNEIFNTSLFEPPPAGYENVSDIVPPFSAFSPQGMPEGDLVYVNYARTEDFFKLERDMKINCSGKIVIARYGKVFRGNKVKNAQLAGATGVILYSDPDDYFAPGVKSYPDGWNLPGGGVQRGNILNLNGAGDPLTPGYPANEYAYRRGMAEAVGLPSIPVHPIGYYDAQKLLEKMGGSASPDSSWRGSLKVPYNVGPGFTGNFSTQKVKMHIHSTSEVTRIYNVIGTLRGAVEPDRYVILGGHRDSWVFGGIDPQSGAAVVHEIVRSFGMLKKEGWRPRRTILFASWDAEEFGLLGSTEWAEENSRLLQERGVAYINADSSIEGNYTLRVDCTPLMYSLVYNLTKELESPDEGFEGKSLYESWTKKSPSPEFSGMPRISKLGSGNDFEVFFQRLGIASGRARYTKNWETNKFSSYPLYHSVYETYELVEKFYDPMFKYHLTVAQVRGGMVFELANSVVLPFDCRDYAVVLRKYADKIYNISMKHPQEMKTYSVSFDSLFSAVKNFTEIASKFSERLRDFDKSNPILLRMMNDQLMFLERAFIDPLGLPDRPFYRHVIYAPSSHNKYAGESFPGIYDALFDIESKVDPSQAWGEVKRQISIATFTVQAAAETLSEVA

[2] = biological target: T2, human prostate specific membrane antigen (PSMA) (human, UniProt Q04609 1-750); assay: flow cytometry, direct binding to LNCaP cells (relative cell binding, MFI, against concentration in nM); the table under the plot labels the half-maximal concentration IC50; unit taken from the concentration axis
T2 construct: Endogenous PSMA on the human prostate cancer cell lines LNCaP, 22Rv1, MDA-PCA-2B and VCAP; also called human PSMA
T2 sequence (Q04609 whole entry): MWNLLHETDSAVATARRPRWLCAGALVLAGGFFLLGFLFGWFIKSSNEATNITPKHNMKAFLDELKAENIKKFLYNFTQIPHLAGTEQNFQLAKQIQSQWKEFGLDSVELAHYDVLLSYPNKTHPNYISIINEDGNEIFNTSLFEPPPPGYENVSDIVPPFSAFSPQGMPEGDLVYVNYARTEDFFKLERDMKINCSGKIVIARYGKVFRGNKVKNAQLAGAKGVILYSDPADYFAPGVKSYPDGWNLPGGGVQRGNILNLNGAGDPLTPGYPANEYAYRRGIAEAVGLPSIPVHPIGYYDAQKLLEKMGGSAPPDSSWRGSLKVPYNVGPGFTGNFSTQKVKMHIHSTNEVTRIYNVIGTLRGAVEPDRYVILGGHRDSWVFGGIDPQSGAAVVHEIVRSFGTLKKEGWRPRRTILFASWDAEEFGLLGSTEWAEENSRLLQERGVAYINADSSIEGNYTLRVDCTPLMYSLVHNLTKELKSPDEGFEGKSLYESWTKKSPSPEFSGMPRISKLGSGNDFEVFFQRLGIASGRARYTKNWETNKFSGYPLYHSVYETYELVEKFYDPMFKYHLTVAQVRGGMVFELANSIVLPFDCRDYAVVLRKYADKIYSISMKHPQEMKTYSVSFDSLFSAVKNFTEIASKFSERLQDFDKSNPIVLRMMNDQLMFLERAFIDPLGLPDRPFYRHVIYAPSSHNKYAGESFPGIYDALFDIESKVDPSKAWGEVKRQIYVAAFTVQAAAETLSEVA

[3] = biological target: T2, human prostate specific membrane …; assay: binding to LNCaP cells (flow cytometry, FIG. 9C)
[4] = biological target: T2, human prostate specific membrane …; assay: binding to LNCaP cells (flow cytometry, FIG. 8C)
[5] = biological target: T2, human prostate specific membrane …; assay: flow cytometry, direct binding to LNCaP cells (relative cell binding, MFI, against concentration in nM); the table under the plot labels the half-maximal concentration IC50; unit taken from the concentration axis; remark: listed apart in the source
[6] = biological target: T2, human prostate specific membrane …; assay: as above; remark: listed apart in the source
[7] = biological target: T1, cynomolgus monkey PSMA-Fc fusion; assay: binding to cynoPSMA-Fc; method not described

Kd [1]: 0.1 nM
IC50 [2]: 1.32 nM
Kd [3]: ~0.025 nM
B1: P258AR6P1071_D02 (designed binder)
chain: LPAPKNLVVSRVTEDSARLSWAIDEQRDWFESFLIQYQESEKVGEAIVLTVPGSERSYDLTGLKPGTEYTVSIYGVYHVYRSNPLSAIFTT
notes: not shown: C-terminal poly-histidine tag

Kd [4]: ~0.003 nM
IC50 [5]: 0.598 nM
IC50 [6]: 0.598 nM
IC50 [2]: 0.598 nM
Kd [7]: 692 nM
B2: P233FR9_H10 PSMA binding FN3 domain (designed binder)
chain: LPAPKNLVVSRVTEDSARLSWTAPDAAFDSFAIGYWEWDDDGEAIVLTVPGSERSYDLTGLKPGTEYPVYIAGVKGGQWSFPLSAIFTT
notes: His-tagged, expressed in E. coli; also called H10 centyrin; not shown: C-terminal poly-histidine tag

IC50 [5]: 0.608 nM
B3: P233FR9_H10_v18 (designed binder)
chain: B2 chain with G34A, E53C
notes: Optimized Centyrin; not shown: C-terminal poly-histidine tag
